These are literature values, as cited in article PMC6426755.

The target in the data set is CCL21 (Homo sapiens) (UniProt O00585). Description: SPR (Biacore).
Chain of UniProt O00585 (O00585 24-134): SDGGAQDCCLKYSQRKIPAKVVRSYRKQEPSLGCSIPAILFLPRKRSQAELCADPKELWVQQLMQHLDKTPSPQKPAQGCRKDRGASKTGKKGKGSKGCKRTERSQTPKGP

podoplanin (from UniProt Q86YL7): the Kd (as a rule, the free concentration of one partner at which half of the binding sites on the other are occupied at equilibrium, for simple one-to-one binding) is 0.07 µM.
